System: E. necator
Experiment: Leaf disc assay, dry inoculum (settling tower), decrease in disease severity / hyphal growth (Example 2)
Conditions: decrease in disease severity (hyphal growth) relative to untreated control, value ± SE; for % decrease =/− SE TP1: time point 1 (untreated control hyphal growth ≥50%); for % decrease =/− SE TP2: time point 2

Molecule | % decrease =/− SE TP1 | % decrease =/− SE TP2
GS3610 (nucleic acid) sense: AUCAAACUGGGAGAGAUCAGAAACUAAGCUUGUGGAGCUGUGAAUCUUAACAGGGGUGUAAGCAUUUAGUUCCGAAACUCGUUGAGCUGAGACAAUAUCUCUAGGUUUUCCUAUAUCUUCUGGGUUAAGAAAGAAUUGAGAUGAUAGGUCAGCGAUAGUUGCGGGAGCGGGAUCGUAUAAUGUUAGACUUUUAACUCCAGCCAGAGCUAUAUUCUUAGCUAUUUCGAUACCAAGACCUUUCAAGCCAAUAAUAAGAAUAUUCGAUGCACUCAUUCGUUUCAUAGCCUCGUGUCCAAGAAC antisense: GUUCUUGGACACGAGGCUAUGAAACGAAUGAGUGCAUCGAAUAUUCUUAUUAUUGGCUUGAAAGGUCUUGGUAUCGAAAUAGCUAAGAAUAUAGCUCUGGCUGGAGUUAAAAGUCUAACAUUAUACGAUCCCGCUCCCGCAACUAUCGCUGACCUAUCAUCUCAAUUCUUUCUUAACCCAGAAGAUAUAGGAAAACCUAGAGAUAUUGUCUCAGCUCAACGAGUUUCGGAACUAAAUGCUUACACCCCUGUUAAGAUUCACAGCUCCACAAGCUUAGUUUCUGAUCUCUCCCAGUUUGAU | 10 ± 6% | 5 ± 6%
GS3612 (nucleic acid) sense: AUGAGCUGGUCUUUCAGUGGAAUAUCUGUCAAUAUUACAGCUUGAUAUGAAUCAAACUGGGAGAGAUCAGAAACUAAGCUUGUGGAGCUGUGAAUCUUAACAGGGGUGUAAGCAUUUAGUUCCGAAACUCGUUGAGCUGAGACAAUAUCUCUAGGUUUUCCUAUAUCUUCUGGGUUAAGAAAGAAUUGAGAUGAUAGGUCAGCGAUAGUUGCGGGAGCGGGAUCGUAUAAUGUUAGACUUUUAACUCCAGCCAGAGCUAUAUUCUUAGCUAUUUCGAUACCAAGACCUUUCAAGCCAAUAAUAAGAAUAUUCGAUGCACUCAUUCGUUUCAUAGCCUCGUGUCCAAGAACGUAGAGUUGCCUACUGUAUAAAGACUCAUCGAUAACAUUAUUAUUUUCUU antisense: AAGAAAAUAAUAAUGUUAUCGAUGAGUCUUUAUACAGUAGGCAACUCUACGUUCUUGGACACGAGGCUAUGAAACGAAUGAGUGCAUCGAAUAUUCUUAUUAUUGGCUUGAAAGGUCUUGGUAUCGAAAUAGCUAAGAAUAUAGCUCUGGCUGGAGUUAAAAGUCUAACAUUAUACGAUCCCGCUCCCGCAACUAUCGCUGACCUAUCAUCUCAAUUCUUUCUUAACCCAGAAGAUAUAGGAAAACCUAGAGAUAUUGUCUCAGCUCAACGAGUUUCGGAACUAAAUGCUUACACCCCUGUUAAGAUUCACAGCUCCACAAGCUUAGUUUCUGAUCUCUCCCAGUUUGAUUCAUAUCAAGCUGUAAUAUUGACAGAUAUUCCACUGAAAGACCAGCUCAU | 22 ± 6% | –
GS3613 (nucleic acid) sense: UGUAGCCGCAACAGUUUCAGCUGUCCCAGCUAGUCCUUCUGAUUGAAGUUUAUCAUUAGUAAUCCCUUUAGCGAUGGCGCCAUUAGUACCUUCGGUUGAGUUGCCAACAUUAGAUACUUCGCCAGCACCAUCAGAUACAUGUGUAGUUAAUUCUUCAGAGGUCUUGUCCGGACUAUCUAUUGCGAUCUUUACUGCAAUCUCACGACCUUGAACUUCUUUUCCAUUCAUUUCGGCAACAGCCCUAUUUUGAAGUUCAUUAGAUGCUAAGUUCACAAAGCCAAACCCACGGCCUUUCCGAGGUUCGUUGCGGGCCUGAAGCUUUUUAACCAUGAAUUUUGGAAUAGGACGCA antisense: UGCGUCCUAUUCCAAAAUUCAUGGUUAAAAAGCUUCAGGCCCGCAACGAACCUCGGAAAGGCCGUGGGUUUGGCUUUGUGAACUUAGCAUCUAAUGAACUUCAAAAUAGGGCUGUUGCCGAAAUGAAUGGAAAAGAAGUUCAAGGUCGUGAGAUUGCAGUAAAGAUCGCAAUAGAUAGUCCGGACAAGACCUCUGAAGAAUUAACUACACAUGUAUCUGAUGGUGCUGGCGAAGUAUCUAAUGUUGGCAACUCAACCGAAGGUACUAAUGGCGCCAUCGCUAAAGGGAUUACUAAUGAUAAACUUCAAUCAGAAGGACUAGCUGGGACAGCUGAAACUGUUGCGGCUACA | 11 ± 3% | –
GS3615 (nucleic acid) sense: UAUCAUUAGUAAUCCCUUUAGCGAUGGCGCCAUUAGUACCUUCGGUUGAGUUGCCAACAUUAGAUACUUCGCCAGCACCAUCAGAUACAUGUGUAGUUAAUUCUUCAGAGGUCUUGUCCGGACUAUCUAUUGCGAUCUUUACUGCAAUCUCACGACCUUGAACUUCUUUUCCAUUCAUUUCGGCAACAGCCCUAUUUUGAAGUUCAUUAGAUGCUAAGUUCACAAAGCCAAACCCACGGCCUUUCCGAGG antisense: CCUCGGAAAGGCCGUGGGUUUGGCUUUGUGAACUUAGCAUCUAAUGAACUUCAAAAUAGGGCUGUUGCCGAAAUGAAUGGAAAAGAAGUUCAAGGUCGUGAGAUUGCAGUAAAGAUCGCAAUAGAUAGUCCGGACAAGACCUCUGAAGAAUUAACUACACAUGUAUCUGAUGGUGCUGGCGAAGUAUCUAAUGUUGGCAACUCAACCGAAGGUACUAAUGGCGCCAUCGCUAAAGGGAUUACUAAUGAUA | 4 ± 5% | 5 ± 5%
GS3616 (nucleic acid) sense: UUAAAAGUUGCGGUUUAACUUAAGCUGUAGCCGCAACAGUUUCAGCUGUCCCAGCUAGUCCUUCUGAUUGAAGUUUAUCAUUAGUAAUCCCUUUAGCGAUGGCGCCAUUAGUACCUUCGGUUGAGUUGCCAACAUUAGAUACUUCGCCAGCACCAUCAGAUACAUGUGUAGUUAAUUCUUCAGAGGUCUUGUCCGGACUAUCUAUUGCGAUCUUUACUGCAAUCUCACGACCUUGAACUUCUUUUCCAUUCAUUUCGGCAACAGCCCUAUUUUGAAGUUCAUUAGAUGCUAAGUUCACAAAGCCAAACCCACGGCCUUUCCGAGGUUCGUUGCGGGCCUGAAGCUUUUUAACCAUGAAUUUUGGAAUAGGACGCAGAGCAAUUUUGGCAGAUACUGGUUC antisense: GAACCAGUAUCUGCCAAAAUUGCUCUGCGUCCUAUUCCAAAAUUCAUGGUUAAAAAGCUUCAGGCCCGCAACGAACCUCGGAAAGGCCGUGGGUUUGGCUUUGUGAACUUAGCAUCUAAUGAACUUCAAAAUAGGGCUGUUGCCGAAAUGAAUGGAAAAGAAGUUCAAGGUCGUGAGAUUGCAGUAAAGAUCGCAAUAGAUAGUCCGGACAAGACCUCUGAAGAAUUAACUACACAUGUAUCUGAUGGUGCUGGCGAAGUAUCUAAUGUUGGCAACUCAACCGAAGGUACUAAUGGCGCCAUCGCUAAAGGGAUUACUAAUGAUAAACUUCAAUCAGAAGGACUAGCUGGGACAGCUGAAACUGUUGCGGCUACAGCUUAAGUUAAACCGCAACUUUUAA | 14 ± 4% | –
GS3617 (nucleic acid) sense: UCAUGGAAAGAGUAGUUGGAUACGAGAUAUAGAAGGCUGUGAUGCCUUCAGUGCGAUAGAUAUAGCGGGCACAAUCACUCAGUGAUCUAUAAAUUUUGCGAGAGUUAUGCAUUUGCAUUCUUUGCUUUAUUACAUCAAAUGGGUUCAUUAAAGCAUCACUUGCAAUUGUUGCGCAUGCCCCACUUGUAACUAUGUAGCUUCAGUAAGUGCUCAAUAUCAAGGAUAAAUUGGCGAUGUAGUCAUAUAUGUC antisense: GACAUAUAUGACUACAUCGCCAAUUUAUCCUUGAUAUUGAGCACUUACUGAAGCUACAUAGUUACAAGUGGGGCAUGCGCAACAAUUGCAAGUGAUGCUUUAAUGAACCCAUUUGAUGUAAUAAAGCAAAGAAUGCAAAUGCAUAACUCUCGCAAAAUUUAUAGAUCACUGAGUGAUUGUGCCCGCUAUAUCUAUCGCACUGAAGGCAUCACAGCCUUCUAUAUCUCGUAUCCAACUACUCUUUCCAUGA | 22 ± 6% | 14 ± 6%
GS3618 (nucleic acid) sense: CGUAAGCCUUUGAUGGGUUCAGAAAUGUAGAUACAGAUUCGUAUGCGAGAAGUUGAAGUGCUGUAAAUGGUACAGUCAUGGAAAGAGUAGUUGGAUACGAGAUAUAGAAGGCUGUGAUGCCUUCAGUGCGAUAGAUAUAGCGGGCACAAUCACUCAGUGAUCUAUAAAUUUUGCGAGAGUUAUGCAUUUGCAUUCUUUGCUUUAUUACAUCAAAUGGGUUCAUUAAAGCAUCACUUGCAAUUGUUGCGCAUGCCCCACUUGUAACUAUGUAGCUUCAGUAAGUGCUCAAUAUCAAGGAUAAAUUGGCGAUGUAGUCAUAUAUGUCUGAUUCCUUAAUCAAAAUUCUUAAUACAGACCUGCUGCAAUAGGAUGAUGAGCUCCUGUUUGAUUACCUCCCAUG antisense: CAUGGGAGGUAAUCAAACAGGAGCUCAUCAUCCUAUUGCAGCAGGUCUGUAUUAAGAAUUUUGAUUAAGGAAUCAGACAUAUAUGACUACAUCGCCAAUUUAUCCUUGAUAUUGAGCACUUACUGAAGCUACAUAGUUACAAGUGGGGCAUGCGCAACAAUUGCAAGUGAUGCUUUAAUGAACCCAUUUGAUGUAAUAAAGCAAAGAAUGCAAAUGCAUAACUCUCGCAAAAUUUAUAGAUCACUGAGUGAUUGUGCCCGCUAUAUCUAUCGCACUGAAGGCAUCACAGCCUUCUAUAUCUCGUAUCCAACUACUCUUUCCAUGACUGUACCAUUUACAGCACUUCAACUUCUCGCAUACGAAUCUGUAUCUACAUUUCUGAACCCAUCAAAGGCUUACG | 27 ± 4% | –
GS3619 (nucleic acid) sense: UGUAGAUACAGAUUCGUAUGCGAGAAGUUGAAGUGCUGUAAAUGGUACAGUCAUGGAAAGAGUAGUUGGAUACGAGAUAUAGAAGGCUGUGAUGCCUUCAGUGCGAUAGAUAUAGCGGGCACAAUCACUCAGUGAUCUAUAAAUUUUGCGAGAGUUAUGCAUUUGCAUUCUUUGCUUUAUUACAUCAAAUGGGUUCAUUAAAGCAUCACUUGCAAUUGUUGCGCAUGCCCCACUUGUAACUAUGUAGCUUCAGUAAGUGCUCAAUAUCAAGGAUAAAUUGGCGAUGUAGUCAUAUAUGUCUGAUUCCUUAAUCAAAAUUCUUAAUACAGACCUGCUGCAAUAGGAUGAUG antisense: CAUCAUCCUAUUGCAGCAGGUCUGUAUUAAGAAUUUUGAUUAAGGAAUCAGACAUAUAUGACUACAUCGCCAAUUUAUCCUUGAUAUUGAGCACUUACUGAAGCUACAUAGUUACAAGUGGGGCAUGCGCAACAAUUGCAAGUGAUGCUUUAAUGAACCCAUUUGAUGUAAUAAAGCAAAGAAUGCAAAUGCAUAACUCUCGCAAAAUUUAUAGAUCACUGAGUGAUUGUGCCCGCUAUAUCUAUCGCACUGAAGGCAUCACAGCCUUCUAUAUCUCGUAUCCAACUACUCUUUCCAUGACUGUACCAUUUACAGCACUUCAACUUCUCGCAUACGAAUCUGUAUCUACA | 9 ± 2% | –
